Experimental data from patent publication US20190031762A1, “POSTERIOR OCULAR FIBROSIS INHIBITION BY ANTAGONIZING PLACENTAL GROWTH FACTOR” (THROMBOGENICS NV, priority 2016, published 2019).

How the values were obtained:
mouse CNV model = assay: Posterior ocular collagen deposition (Col1a staining) in laser-induced CNV mouse model; assay type: in vivo; details: repeat experiment (FIG. 4), day 30, 3.1 μg/eye, compared to PBS
Experimental: Mice (C57BL/6J, male, 8-10 weeks old) were anesthetized by intraperitoneal injection (135 μL) of a mixture of ketamine hydrochloride (Anesketin; […]) and medetomidine (Domitor; 1 mg/mL) and their pupils dilated with one eye drop (50 μL) Tropicamide (Tropicol™; 5 mg/mL; Thea, Research Papers Clermont-Ferrand, France). Three laser burns were placed in one eye with a green laser at the 9, 12, 3 o'clock positions around the optic disk using a slit lamp delivery system with a hand-held cover slide as a contact lens moisturized with Genteal Gel™ (Novartis, Vilvoorde, Belgium). Each spot was placed with a spot size of 100 μm, laser duration of a 50 milliseconds and a power of 320 mW. […] Finally, 300 μL atipamezole (Antisedan; 5 mg/mL) was injected intraperitoneally to reverse the effect of medetomidine and to reduce sedation time.
At different time points after lasering, the compounds were administered intravitreally (IVT). The animal was anesthetized with a mixture of ketamine hydrochloride/medetomidine and the eye was treated with a drop of 0.4% oxybuprocaine (Unicaine; Thea Pharma). Intravitreal injections (1 μL) to one eye according to Tables 1 to 3 were performed by using an analytic science syringe (SGE Analytic Science) and glass capillaries with a diameter of 50-70 μm at the end, controlled by the UMP3I Microsyringe Injector and Micro4 Controller (all from World Precision Instruments Inc., Hertfordshire, UK). Finally, atipamezole (Antisedan) was injected intraperitoneally to reverse the effect of medetomidine and to reduce sedation time.
To analyze the in vivo efficacy of the different compounds, the retina was removed from the dissected posterior segments. These posterior eye cups, which included retinal pigment epithelium (RPE), the choroid and the sclera were stored in phosphate buffered saline (PBS).
To stain for the presence of collagen type 1 (Colla) protein in the laser spots at day 30 after laser, a rabbit anti-collagen antibody (Abcam, 1/270) was used overnight, diluted in Tris-buffered saline (TBS)-Triton 0.5% (v/v) at 4° C. The following day, the tissues were incubated for 2 hours with goat anti rabbit IgG Alexa Fluor 555 (Life Technologies; A-21428), diluted 1/100 in TBS-Triton 0.3% (v/v) at 4° C. The flat mounts of the posterior eye cups were mounted with Prolong Gold with 4′,6-diamidino-2-phenylindole (DAPI, Molecular Probes). Images were obtained using a microscope with a digital camera (Axiocam MrC5; Carl Zeiss, Oberkochen, Germany) at a magnification factor of 20. Morphometric analyses were performed using commercial software (Axiovision; Zeiss, Oberkochen, Germany). The density of collagen deposition was determined by calculating the Colla-positive area as a proportion of the total lesion.
The mouse CNV model as described in Example 2.1 was used. At different time points after lasering, compounds were administered intraperitoneally (IP), or intravitreally (IVT), as indicated in Table 3.

murine PlGF = molecular target: T1, murine PlGF (Mus musculus, UniProt P49764); assay: Binding of antibody to murine PlGF
T1 sequence (P49764 19-158): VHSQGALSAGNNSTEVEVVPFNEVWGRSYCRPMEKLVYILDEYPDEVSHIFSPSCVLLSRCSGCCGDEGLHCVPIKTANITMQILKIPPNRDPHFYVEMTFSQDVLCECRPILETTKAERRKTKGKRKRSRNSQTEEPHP

human PlGF = molecular target: T2, human PlGF (Homo sapiens, UniProt P49763); assay: Binding of antibody to human PlGF
T2 sequence (P49763 19-131 limits assumed): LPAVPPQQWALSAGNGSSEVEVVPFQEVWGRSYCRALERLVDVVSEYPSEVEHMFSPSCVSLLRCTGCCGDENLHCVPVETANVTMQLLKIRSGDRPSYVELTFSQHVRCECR

affinity for murine PlGF relative to human PlGF, in words (murine PlGF): lower affinity
binding to human PlGF, in words (human PlGF): binds
B1: 16D3: murine anti-human PlGF-neutralizing antibody, CDRs SEQ ID NOs:1-6; hybridoma deposit LMBP 6399CB (antibody, V domains shown)
VH: QVQLQQSGAELVKPGASVKISCKASGYTFTDYYINWVKLAPGQGLEWIGWIYPGSGNTKYNEKFKGKATLTIDTSSSTAYMQLSSLTSEDTAVYFCVRDSPFFDYWGQGTLLTVSS
VL: DIVLTQSPDSLAVSLGERVTMNCKSSQSLLNSGMRKSFLAWYQQKPGQSPKLLIYWASTRESGVPDRFTGSGSGTDFTLTISSVQAEDVAVYYCKQSYHLFTFGSGTKLEIK
modifications: humanized heavy chain amino acid sequence of neutralizing anti-PlGF antibody; humanized light chain amino acid sequence of neutralizing anti-PlGF antibody
notes: hybridoma deposit LMBP 6399CB
effect on collagen deposition / fibrosis, in words (mouse CNV model): significantly decreased collagen deposition
reduction in collagen deposition (Col1a) (mouse CNV model; IVT D0, 4, 10 and 20): 34%
